Assay results published in the supplement of paper PMC10065799, “High-throughput profiling of sequence recognition by tyrosine kinases and SH2 domains using bacterial peptide display” (eLife, 2023).

What was measured:
Grb2 SH2 = Grb2 SH2 (UniProt P62993); experiment: SH2 binding enrichment of the phosphorylated peptide, bacterial display (enrichment ratio); higher = better substrate or ligand; peptides without Tyr show the background
SHP2-C SH2 = experiment: as above
c-Src SH2 = experiment: as above
Fyn = Fyn (UniProt P06241); experiment: phosphorylation enrichment, bacterial display (enrichment ratio); higher = better substrate or ligand; peptides without Tyr show the background
Jak2 = Jak2 (UniProt O60674); experiment: as above
Jak2, sequence (O60674 whole entry, looked up): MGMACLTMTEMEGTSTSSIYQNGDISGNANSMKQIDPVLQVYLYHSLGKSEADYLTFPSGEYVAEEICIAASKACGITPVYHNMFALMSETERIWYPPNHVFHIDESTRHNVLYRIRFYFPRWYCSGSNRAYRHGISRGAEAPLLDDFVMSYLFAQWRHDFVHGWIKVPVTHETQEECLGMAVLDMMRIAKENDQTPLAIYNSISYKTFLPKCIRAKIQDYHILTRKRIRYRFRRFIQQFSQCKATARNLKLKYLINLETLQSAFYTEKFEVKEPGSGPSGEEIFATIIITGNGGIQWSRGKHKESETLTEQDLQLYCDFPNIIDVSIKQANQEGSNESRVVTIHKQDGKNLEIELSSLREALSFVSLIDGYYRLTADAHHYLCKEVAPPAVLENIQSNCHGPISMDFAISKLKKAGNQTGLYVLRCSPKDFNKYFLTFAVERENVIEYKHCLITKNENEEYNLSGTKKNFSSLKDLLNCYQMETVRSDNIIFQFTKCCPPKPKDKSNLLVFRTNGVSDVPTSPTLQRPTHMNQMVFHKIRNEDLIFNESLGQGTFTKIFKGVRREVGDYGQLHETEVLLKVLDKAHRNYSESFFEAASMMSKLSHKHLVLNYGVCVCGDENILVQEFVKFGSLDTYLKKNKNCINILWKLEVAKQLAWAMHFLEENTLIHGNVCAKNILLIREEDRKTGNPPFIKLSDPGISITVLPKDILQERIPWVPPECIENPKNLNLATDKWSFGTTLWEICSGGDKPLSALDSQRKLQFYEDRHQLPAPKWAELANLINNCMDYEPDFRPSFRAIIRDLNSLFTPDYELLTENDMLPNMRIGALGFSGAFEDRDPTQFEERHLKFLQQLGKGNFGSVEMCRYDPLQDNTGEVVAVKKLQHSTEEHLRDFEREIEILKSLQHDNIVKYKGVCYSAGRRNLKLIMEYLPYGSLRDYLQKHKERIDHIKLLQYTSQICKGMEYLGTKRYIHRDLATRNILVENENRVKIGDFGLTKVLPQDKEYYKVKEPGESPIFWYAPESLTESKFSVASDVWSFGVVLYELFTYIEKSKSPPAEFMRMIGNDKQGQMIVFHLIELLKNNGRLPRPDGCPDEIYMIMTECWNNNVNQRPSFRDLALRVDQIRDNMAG

c-Abl (mouse) = experiment: as above
EPHB1 = EPHB1 (UniProt P54762); experiment: as above
EPHB1, sequence (P54762 whole entry, looked up): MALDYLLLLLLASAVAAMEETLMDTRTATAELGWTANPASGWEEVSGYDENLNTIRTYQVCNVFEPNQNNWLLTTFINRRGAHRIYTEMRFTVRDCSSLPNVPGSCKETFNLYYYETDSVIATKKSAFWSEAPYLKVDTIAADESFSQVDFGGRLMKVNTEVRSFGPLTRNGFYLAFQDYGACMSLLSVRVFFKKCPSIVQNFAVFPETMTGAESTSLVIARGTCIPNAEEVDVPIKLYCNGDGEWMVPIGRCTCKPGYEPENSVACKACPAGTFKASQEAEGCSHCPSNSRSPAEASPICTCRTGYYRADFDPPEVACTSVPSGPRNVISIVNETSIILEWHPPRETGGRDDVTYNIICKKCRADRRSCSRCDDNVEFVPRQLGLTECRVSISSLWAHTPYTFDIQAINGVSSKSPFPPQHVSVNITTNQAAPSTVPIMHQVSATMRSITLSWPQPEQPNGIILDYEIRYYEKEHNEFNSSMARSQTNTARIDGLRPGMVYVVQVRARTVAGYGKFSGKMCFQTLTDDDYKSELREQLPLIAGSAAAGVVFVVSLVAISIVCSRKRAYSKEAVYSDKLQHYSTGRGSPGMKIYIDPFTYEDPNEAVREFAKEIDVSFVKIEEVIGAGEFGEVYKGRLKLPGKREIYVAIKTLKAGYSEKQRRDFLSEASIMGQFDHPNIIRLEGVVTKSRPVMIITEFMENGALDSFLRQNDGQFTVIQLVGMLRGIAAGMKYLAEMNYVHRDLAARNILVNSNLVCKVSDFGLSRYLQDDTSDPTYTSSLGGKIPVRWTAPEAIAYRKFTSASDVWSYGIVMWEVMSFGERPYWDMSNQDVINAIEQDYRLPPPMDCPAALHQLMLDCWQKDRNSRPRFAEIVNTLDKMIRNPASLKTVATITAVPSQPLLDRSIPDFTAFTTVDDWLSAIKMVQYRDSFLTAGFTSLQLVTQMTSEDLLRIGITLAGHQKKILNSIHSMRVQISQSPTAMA

c-Src = experiment: as above
AncSZ = experiment: as above
Fer (mouse) = experiment: as above
FGFR3 = FGFR3 (UniProt P22607); experiment: as above
EPHB2 = EPHB2 (UniProt P29323); experiment: as above
Fes = Fes (UniProt P07332); experiment: as above
Fes, sequence (P07332 whole entry, looked up): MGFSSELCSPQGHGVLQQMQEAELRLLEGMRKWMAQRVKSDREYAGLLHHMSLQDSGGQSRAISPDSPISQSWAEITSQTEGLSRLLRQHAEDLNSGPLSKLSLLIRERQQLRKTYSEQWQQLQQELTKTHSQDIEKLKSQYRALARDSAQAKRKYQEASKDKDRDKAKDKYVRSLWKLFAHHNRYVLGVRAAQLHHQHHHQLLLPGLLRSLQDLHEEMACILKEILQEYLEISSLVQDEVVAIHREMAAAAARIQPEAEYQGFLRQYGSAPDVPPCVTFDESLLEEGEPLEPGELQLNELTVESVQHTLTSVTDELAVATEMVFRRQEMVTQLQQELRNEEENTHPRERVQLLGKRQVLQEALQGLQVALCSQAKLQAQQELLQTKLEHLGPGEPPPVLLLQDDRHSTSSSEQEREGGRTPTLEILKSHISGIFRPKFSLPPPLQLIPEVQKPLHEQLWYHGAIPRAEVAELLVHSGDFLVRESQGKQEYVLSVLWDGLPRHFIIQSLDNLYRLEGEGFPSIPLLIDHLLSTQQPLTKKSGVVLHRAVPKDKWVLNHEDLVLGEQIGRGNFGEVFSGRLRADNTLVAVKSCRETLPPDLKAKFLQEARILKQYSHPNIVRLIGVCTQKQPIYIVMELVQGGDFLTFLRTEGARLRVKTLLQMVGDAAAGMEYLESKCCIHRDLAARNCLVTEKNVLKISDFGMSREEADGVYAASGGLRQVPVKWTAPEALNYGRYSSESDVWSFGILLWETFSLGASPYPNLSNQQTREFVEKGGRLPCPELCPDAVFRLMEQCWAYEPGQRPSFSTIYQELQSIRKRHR

FGFR1 = FGFR1 (UniProt P11362); experiment: as above
FGFR1, sequence (P11362 whole entry, looked up): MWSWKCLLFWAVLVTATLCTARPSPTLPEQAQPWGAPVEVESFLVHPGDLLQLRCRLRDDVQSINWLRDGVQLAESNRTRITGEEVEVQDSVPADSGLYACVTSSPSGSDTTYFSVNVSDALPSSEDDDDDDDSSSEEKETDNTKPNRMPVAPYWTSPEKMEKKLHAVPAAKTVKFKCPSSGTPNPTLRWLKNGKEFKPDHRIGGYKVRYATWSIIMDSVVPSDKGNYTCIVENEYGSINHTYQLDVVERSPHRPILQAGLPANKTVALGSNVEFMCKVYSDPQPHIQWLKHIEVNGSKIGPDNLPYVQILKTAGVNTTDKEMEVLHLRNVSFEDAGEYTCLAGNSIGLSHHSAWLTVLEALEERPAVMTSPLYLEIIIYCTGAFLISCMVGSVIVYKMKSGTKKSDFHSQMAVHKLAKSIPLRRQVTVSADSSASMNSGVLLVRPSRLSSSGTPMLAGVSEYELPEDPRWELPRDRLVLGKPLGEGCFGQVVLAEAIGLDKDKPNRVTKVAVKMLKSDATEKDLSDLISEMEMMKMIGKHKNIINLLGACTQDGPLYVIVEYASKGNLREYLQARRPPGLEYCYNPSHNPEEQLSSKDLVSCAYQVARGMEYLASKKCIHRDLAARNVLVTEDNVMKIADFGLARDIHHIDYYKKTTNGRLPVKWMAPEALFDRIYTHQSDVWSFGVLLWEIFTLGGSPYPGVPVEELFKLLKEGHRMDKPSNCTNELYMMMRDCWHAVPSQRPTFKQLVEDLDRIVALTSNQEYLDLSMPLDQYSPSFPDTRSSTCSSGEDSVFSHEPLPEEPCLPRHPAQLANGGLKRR

MERTK = MERTK (UniProt Q12866); experiment: as above
MERTK, sequence (Q12866 whole entry, looked up): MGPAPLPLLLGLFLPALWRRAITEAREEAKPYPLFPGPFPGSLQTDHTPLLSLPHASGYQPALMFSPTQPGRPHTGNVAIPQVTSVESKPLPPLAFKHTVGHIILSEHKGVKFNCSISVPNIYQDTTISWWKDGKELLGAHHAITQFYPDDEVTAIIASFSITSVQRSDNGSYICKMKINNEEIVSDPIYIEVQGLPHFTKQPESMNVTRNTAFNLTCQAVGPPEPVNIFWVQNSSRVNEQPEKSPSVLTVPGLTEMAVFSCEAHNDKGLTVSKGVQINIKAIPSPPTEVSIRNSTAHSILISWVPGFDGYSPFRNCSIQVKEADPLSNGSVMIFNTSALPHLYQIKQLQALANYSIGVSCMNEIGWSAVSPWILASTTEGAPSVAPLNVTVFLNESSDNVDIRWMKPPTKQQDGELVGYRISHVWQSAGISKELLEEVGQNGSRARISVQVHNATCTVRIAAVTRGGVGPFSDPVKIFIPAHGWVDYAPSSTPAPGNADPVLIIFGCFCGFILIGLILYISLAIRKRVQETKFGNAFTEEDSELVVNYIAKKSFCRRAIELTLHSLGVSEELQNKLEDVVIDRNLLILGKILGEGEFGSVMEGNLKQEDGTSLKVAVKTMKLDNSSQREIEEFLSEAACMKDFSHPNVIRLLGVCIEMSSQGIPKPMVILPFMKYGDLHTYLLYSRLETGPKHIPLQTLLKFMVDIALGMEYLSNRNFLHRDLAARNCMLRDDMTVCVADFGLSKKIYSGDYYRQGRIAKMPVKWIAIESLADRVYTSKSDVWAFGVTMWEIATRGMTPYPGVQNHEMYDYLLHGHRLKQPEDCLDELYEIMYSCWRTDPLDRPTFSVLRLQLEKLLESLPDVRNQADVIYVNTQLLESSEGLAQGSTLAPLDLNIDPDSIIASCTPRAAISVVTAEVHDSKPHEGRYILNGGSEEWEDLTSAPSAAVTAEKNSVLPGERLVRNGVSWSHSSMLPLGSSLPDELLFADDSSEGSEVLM

Hck = Hck (UniProt P08631); experiment: as above
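Throughout, for SH2 binding enrichment of the phosphorylated peptide, bacterial display: peptide library displayed on the E. coli surface as eCPX fusions, selected cells deep-sequenced, score is each peptide's frequency after selection divided by its frequency in the input.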
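Throughout, for phosphorylation enrichment, bacterial display: 11-residue human phosphosite peptides and single-mutation variants displayed on the E. coli surface, counted by deep sequencing, each peptide's frequency after selection divided by its frequency in the unselected input library; frequency after pTyr selection over input frequency; kinase dosed for 20-30% of maximal phosphorylation in three min.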

Grb2 SH2, sequence (P62993 whole entry, looked up): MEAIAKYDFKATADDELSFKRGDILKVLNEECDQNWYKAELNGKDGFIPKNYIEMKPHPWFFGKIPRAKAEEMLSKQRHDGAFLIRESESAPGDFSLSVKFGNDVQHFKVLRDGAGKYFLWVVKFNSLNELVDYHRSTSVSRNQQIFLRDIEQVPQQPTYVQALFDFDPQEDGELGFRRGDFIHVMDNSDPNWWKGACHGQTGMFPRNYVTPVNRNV

| Sequence | SH2 binding enrichment (Grb2 SH2) | SH2 binding enrichment (SHP2-C SH2) | SH2 binding enrichment (c-Src SH2) | phosphorylation enrichment (Fyn) | phosphorylation enrichment (Jak2) | phosphorylation enrichment (c-Abl (mouse)) | phosphorylation enrichment (EPHB1) | phosphorylation enrichment (c-Src) | phosphorylation enrichment (AncSZ) | phosphorylation enrichment (Fer (mouse)) | phosphorylation enrichment (FGFR3) | phosphorylation enrichment (EPHB2) | phosphorylation enrichment (Fes) | phosphorylation enrichment (FGFR1) | phosphorylation enrichment (MERTK) | phosphorylation enrichment (Hck) |
| --- | --- | --- | --- | --- | --- | --- | --- | --- | --- | --- | --- | --- | --- | --- | --- | --- |
| DENCFYTRAAS [RPS19_Y54_W52C] | 0.868 | 3.23 | 0.942 | 0.569 | 0.841 | 0.675 | 0.587 | 0.722 | 1 | 0.485 | 0.728 | 0.554 | 0.936 | 0.594 | 0.461 | 0.576 |
| DENRFYTRAAS [RPS19_Y54_W52R] | 1.11 | 0.789 | 0.876 | 0.488 | 0.721 | 0.684 | 0.497 | 0.494 | 1.01 | 0.478 | 0.644 | 0.478 | 0.907 | 0.515 | 0.45 | 0.466 |
| DENWFYTRAAF [RPS19_Y54_S59F] | 0.73 | 0.96 | 0.571 | 0.47 | 1.48 | 0.868 | 0.681 | 0.534 | 1.25 | 0.571 | 0.786 | 0.594 | 1.32 | 0.586 | 0.55 | 0.629 |
| DFLEKYFKFGS [NNMT_Y24_YF] | 0.764 | 0.386 | 0.579 | 0.437 | 1.8 | 0.936 | 0.525 | 0.627 | 1.12 | 0.514 | 0.826 | 0.587 | 1.41 | 0.491 | 0.564 | 0.521 |
| DFPGIYSGFDD [POLR1C_Y33_N32I_YF] | 0.707 | 0.531 | 0.579 | 9.82 | 1.1 | 0.806 | 0.692 | 7.13 | 1.31 | 0.782 | 0.768 | 0.585 | 1.3 | 0.531 | 0.814 | 6.28 |
| DFPIGYPSYLA [TBCK_Y153] | 0.9 | 0.534 | 0.458 | 0.438 | 0.829 | 0.619 | 0.406 | 0.501 | 0.722 | 0.582 | 0.55 | 0.457 | 0.902 | 0.481 | 0.463 | 0.422 |
| DFRTTYVNANE [KCNH2_Y475_N470D] | 23.1 | 2.23 | 2.81 | 0.491 | 0.649 | 0.405 | 0.366 | 0.378 | 0.732 | 0.38 | 0.596 | 0.512 | 0.781 | 0.414 | 0.415 | 0.44 |
| DFTSRYLNASD [PKHD1_Y828] | 1.25 | 0.779 | 0.633 | 0.468 | 0.616 | 0.512 | 0.46 | 0.43 | 0.797 | 0.45 | 0.572 | 0.407 | 0.893 | 0.469 | 0.511 | 0.47 |
| DGFIDYAEFAK [MCFD2_Y138_YF] | 0.829 | 0.753 | 0.397 | 0.674 | 1.16 | 0.728 | 0.793 | 0.675 | 1.13 | 0.456 | 0.647 | 0.718 | 1.23 | 0.522 | 0.468 | 0.48 |
| DGNTRYSTFSE [TKTL1_Y318_D315N] | 0.655 | 1.07 | 1.02 | 0.319 | 1.01 | 0.746 | 0.473 | 0.569 | 0.789 | 0.383 | 0.533 | 0.48 | 0.969 | 0.402 | 0.339 | 0.418 |
| DGSALYTGSAL [COL6A3_Y524] | 0.713 | 0.641 | 0.382 | 0.84 | 0.591 | 0.459 | 0.418 | 0.536 | 0.612 | 0.643 | 0.474 | 0.439 | 0.638 | 0.313 | 0.404 | 0.858 |
| DLDFTYIFPNI [PTEN_Y27_L25F_YF] | 0.758 | 0.435 | 0.47 | 4.4 | 1.83 | 0.8 | 0.996 | 2.15 | 3.5 | 0.627 | 2.27 | 0.618 | 1.33 | 2.87 | 1 | 1.16 |
| DLLNSYIENEG [HSPA4L_Y600] | 1.04 | 0.656 | 0.693 | 0.53 | 1.17 | 0.585 | 0.573 | 0.343 | 0.996 | 0.545 | 0.875 | 0.561 | 0.999 | 0.528 | 0.375 | 0.484 |
| DLNATYCTIQG [U2SURP_Y634_R635C] | 0.982 | 0.7 | 1.2 | 9.64 | 0.845 | 0.78 | 7.15 | 5.32 | 1.31 | 1 | 0.954 | 5.72 | 1.07 | 1.06 | 2.36 | 7.17 |
| DLTQDSEEWKR [ORC6_Y232_Y232S] | 0.837 | 0.823 | 0.588 | 0.463 | 1.07 | 0.676 | 0.616 | 0.476 | 1.02 | 0.456 | 0.661 | 0.576 | 1.09 | 0.495 | 0.489 | 0.614 |
| DPEAAYTTRGG [EPHA3_Y779] | 0.872 | 0.588 | 0.357 | 0.531 | 0.652 | 0.559 | 0.466 | 0.475 | 0.629 | 0.45 | 0.507 | 0.385 | 0.717 | 0.376 | 0.374 | 0.468 |
| DPTNTYARPAE [SGMS2_Y24] | 0.729 | 0.698 | 2 | 0.457 | 0.639 | 0.696 | 0.466 | 0.372 | 1.02 | 0.33 | 0.481 | 0.581 | 0.785 | 0.598 | 0.516 | 0.506 |

| Sequence | SH2 binding enrichment (Grb2 SH2) | SH2 binding enrichment (SHP2-C SH2) | SH2 binding enrichment (c-Src SH2) | phosphorylation enrichment (Fyn) | phosphorylation enrichment (Jak2) | phosphorylation enrichment (c-Abl (mouse)) | phosphorylation enrichment (EPHB1) | phosphorylation enrichment (c-Src) | phosphorylation enrichment (AncSZ) | phosphorylation enrichment (Fer (mouse)) | phosphorylation enrichment (FGFR3) | phosphorylation enrichment (EPHB2) | phosphorylation enrichment (Fes) | phosphorylation enrichment (FGFR1) | phosphorylation enrichment (MERTK) | phosphorylation enrichment (Hck) |
| --- | --- | --- | --- | --- | --- | --- | --- | --- | --- | --- | --- | --- | --- | --- | --- | --- |
| DQNVEYKGTVW [FHL1_Y117] | 0.866 | 0.577 | 0.424 | 0.496 | 0.938 | 0.843 | 0.558 | 0.488 | 0.95 | 0.425 | 0.755 | 0.545 | 1.17 | 0.455 | 0.496 | 0.466 |
| DRPASYKKKSM [PDGFRA_Y768] | 0.803 | 0.962 | 0.412 | 0.365 | 0.494 | 0.546 | 0.343 | 0.409 | 0.383 | 0.306 | 0.347 | 0.367 | 0.517 | 0.324 | 0.418 | 0.39 |
| DRTVHYVDEKG [IFT140_Y216_G212R] | 0.979 | 0.916 | 0.503 | 0.429 | 0.597 | 0.46 | 0.431 | 0.341 | 0.666 | 0.368 | 0.515 | 0.436 | 0.742 | 0.413 | 0.393 | 0.441 |
| DSFATYFRRVL [H2BW1_Y84] | 0.797 | 0.584 | 0.373 | 0.472 | 1 | 0.798 | 0.607 | 0.532 | 1.35 | 0.426 | 0.703 | 0.677 | 1.2 | 0.496 | 0.448 | 0.82 |
| DSILVYQRKEQ [USH2A_Y1909_G1911R] | 0.939 | 1.18 | 0.552 | 0.506 | 0.7 | 0.55 | 0.455 | 0.626 | 0.636 | 0.487 | 0.579 | 0.546 | 0.744 | 0.517 | 0.475 | 0.55 |
| DSRRDYVSQFE [APOA1_Y53_G50R] | 0.803 | 0.524 | 0.531 | 0.409 | 0.645 | 0.567 | 0.456 | 0.43 | 0.762 | 0.387 | 0.503 | 0.447 | 0.709 | 0.542 | 0.464 | 0.478 |
| DTKDDYSALSV [IL17RB_Y457_N458S] | 0.956 | 0.771 | 0.609 | 0.56 | 0.928 | 0.815 | 0.627 | 0.473 | 1.05 | 0.642 | 0.828 | 0.663 | 1.09 | 0.715 | 0.441 | 0.661 |
| DVFLKHLNFAT [PDE6B_Y212_Y212H] | 0.842 | 0.884 | 0.52 | 0.507 | 0.799 | 0.552 | 0.547 | 0.374 | 0.785 | 0.414 | 0.66 | 0.545 | 0.914 | 0.483 | 0.466 | 0.478 |
| DVFVSYDFGKS [SORL1_Y139_YF] | 0.863 | 0.641 | 0.464 | 0.383 | 0.906 | 0.78 | 0.452 | 0.468 | 0.939 | 0.485 | 0.598 | 0.595 | 0.907 | 0.416 | 0.437 | 0.636 |
| DVLEFCNSKKT [PAK1_Y131_Y131C] | 1 | 0.693 | 0.403 | 0.423 | 0.806 | 0.532 | 0.459 | 0.535 | 0.83 | 0.436 | 0.581 | 0.483 | 0.861 | 0.428 | 0.433 | 0.401 |
| DYYDLYGGEKF [PTPN11_Y66] | 1.21 | 0.68 | 0.734 | 5.73 | 2.7 | 0.74 | 6.42 | 4.69 | 2.92 | 1.61 | 12.9 | 6.92 | 1.2 | 13.4 | 3.7 | 5.08 |
| EAAFVYVISSA [WNT4_Y113_A114V] | 0.735 | 0.76 | 0.39 | 0.606 | 1.33 | 0.847 | 0.684 | 0.631 | 1.32 | 0.561 | 1.09 | 0.656 | 1.45 | 0.496 | 0.477 | 0.65 |
| EACPSYSHVVL [CHST6_Y168_R166P] | 1 | 1.75 | 1.52 | 0.411 | 0.527 | 0.54 | 0.492 | 0.507 | 0.7 | 6 | 0.51 | 0.521 | 0.702 | 0.538 | 0.486 | 0.463 |
| EADRKYEEVAH [TPM3_Y163_R168H] | 1.01 | 0.626 | 20.4 | 0.506 | 0.938 | 0.703 | 0.587 | 0.421 | 1 | 0.521 | 0.633 | 0.423 | 1.04 | 0.493 | 0.474 | 0.531 |
| EAVKNYTDKRG [PBRM1_Y672] | 0.866 | 0.567 | 0.516 | 0.421 | 0.56 | 0.489 | 0.484 | 0.433 | 0.56 | 0.41 | 0.459 | 0.498 | 0.653 | 0.418 | 0.478 | 0.38 |
| EAVLHYKHQNQ [MTOR_Y1804] | 0.904 | 0.549 | 0.677 | 0.428 | 0.641 | 0.589 | 0.405 | 0.364 | 0.632 | 0.492 | 0.453 | 0.403 | 0.799 | 0.338 | 0.363 | 0.37 |
